Positions count from the first letter of the chain named.
B1: Aali (Fab) (Fab, V domains shown)
VH: QVQLVESGGGLVKPGGSLRLSCAASGFTFSDHYISWIRQAPGKGLEWVSYISSSGSTTYYAESVKGRFTISRDNAKNSLYLQMNSLRAEDTAVYYCARTYAYRYDFDLWGQGTLVTVSS
VL: QSVLTQPPSVSGAPGQRVTISCTGSSSNIGAGYDVHWYQQLPGTAPKLLIYGNSNRPSGVPDRFSGSKSGTSASLAITGLQAEDEADYYCQTWVHSYSTPVFGGGTKLTVLG
notes: Tested in monovalent Fab format; also called Aali Fab fragment
B2: Cyprus (Fab) (Fab, V domains shown)
VH: QVQLVESGGGLVKPGGSLRLSCAASGFTFSDYYMSWIRQAPGKGLEWVSYISSSGSTIYYADSVKGRFTISRDNAKNSLYLQMNSLRAEDTAVYYCARDGLRYFYGFDYWGQGTLVTVSS
VL: QSVLTQPPSVSAAPGQKVTISCSGSSSNIGNNYVSWYQQLPGTAPKLLIYDNNKRPSGIPDRFSGSKSGTSATLGITGLQTEDEADYYCQAWVHYSLVHWVFGGGTKLTVLG
notes: Tested in monovalent Fab format
B3: Daniel (Fab) (Fab, V domains shown)
VH: QVQLVQSGAEVKKPGASVKVSCKASGYTFTSYYMHWVRQAPGQGLEWMGIINPSGGSTSYAQKFQGRVTMTRDTSTSTVYMELSSLRSEDTAVYYCAREGYTPGGSYTFDIWGQGTLVTVSS
VL: B2 VL with Q90G, A91S, V93D, H94G, Y95F, S96V, L97S, V98S, H99Y, W100S
notes: as for B2
B4: Fiwi (Fab) (Fab, V domains shown)
VH: EVQLVESGGGLVKPGGSLRLSCAASGFTFSNYWISWVRQAPGKGLEWVGRIKSKTYGGTTDYAEPVKGRFTISRDDSKNTLYLQMNSLKTEDTAVYYCARGRYPELGYFDLWGQGTLVTVSS
VL: B2 VL with Q90G, V93D, H94S, S96L, L97S, H99S, W100F
notes: as for B2
B5: Bibi (IgG1) (antibody, V domains shown)
VH: EVQLVESGGGLVKPGGSLRLSCAASGFTFSSYSMNWVRQAPGKGLEWVSSISSSSSYIYYADSVKGRFTISRDNAKNSLYLQMNSLRAEDTAVYYCARTESVWHLGFDIWGQGTLVTVSS
VL: DIQMTQSPSSVSASVGDRVTITCRASQGISSWLAWYQQKPGKAPKLLIYAASSLQSGVPSRFSGSGSGTDFTLTISSLQPEDFATYYCQQNHKYPITFGQGTKVEIKR
B6: Elfu (IgG1) (antibody, V domains shown)
VH: EVQLVQSGAEVKKPGESLKISCKGSGYSFTSYWISWVRQMPGKGLEWMGIIYPGTSYTRYSPSFQGQVTISADKSISTAYLQWSSLKASDTAMYYCARGYHLPYFDYWGQGTLVTVSS
VL: QSVLTQPPSVSGAPGQRVTISCTGSSSNIGAGYDVHWYQQLPGTAPKLLIYGNSNRPSGVPDRFSGSKSGTSASLAITGLQAEDEADYYCQAYASPTRVVFGGGTKLTVLG
B7: Aali (IgG1) (antibody, V domains shown)
VH: B1 VH
VL: B1 VL
B8: Cyprus (IgG1) (antibody, V domains shown)
VH: B2 VH
VL: B2 VL
B9: Daniel (IgG1) (antibody, V domains shown)
VH: B3 VH
VL: B2 VL with Q90G, A91S, V93D, H94G, Y95F, S96V, L97S, V98S, H99Y, W100S
B10: Fiwi (IgG1) (antibody, V domains shown)
VH: B4 VH
VL: B2 VL with Q90G, V93D, H94S, S96L, L97S, H99S, W100F

biological target: T1, PIGQ peptide/HLA-A0201 complex (human, biotinylated (site not stated)); assay: ELISA on Neutravidin plates, Fab; '---' = no binding
T1 construct: Negative control / counter target complex; also called PIGQ/HLA; PIGQ/HLA complex

Q: Does B1 bind?
A: no binding

Q: Does B2 bind?
A: no binding

Q: Does B3 bind?
A: no binding

Q: Does B4 bind?
A: no binding

biological target: T2, WT1 RMF peptide/HLA-A0201 complex (isolated, recombinant, biotinylated) (human); assay: ELISA on Neutravidin plates, IgG

Q: B5 was tested. Which EC50 did it give?
A: < 1 nM

Q: With B6 as the binder, how does the EC50 read?
A: < 1 nM

biological target: T3, WT1 RMF peptide/HLA-A0201 complex (isolated, recombinant, biotinylated) (human); assay: ELISA on Neutravidin plates, IgG
T3 construct: also called RMF/HLA; RMF/HLA complex

Q: How did the EC50 turn out when B7 was run?
A: < 1 nM

Q: With B8 as the binder, how does the EC50 read?
A: < 1 nM

Q: With B9 as the binder, how does the EC50 read?
A: < 1 nM

Q: How did the EC50 turn out when B10 was run?
A: < 1 nM

biological target: T2, WT1 RMF peptide/HLA-A0201 complex …; assay: ELISA as in Example 3; biotinylated peptide/HLA complex coated at 50 nM on Neutravidin plates, IgG titrated, AP-conjugated goat anti-human IgG, RFU

Q: For B5, which “EC50 (read off the curve)” value is on record?
A: ~0.3 nM

Q: Which “EC50 (read off the curve)” value does the source give for B6 here?
A: ~0.3 nM

biological target: T3, WT1 RMF peptide/HLA-A0201 complex …; assay: as above

Q: With B7 as the binder, how does the “EC50 (read off the curve)” value read?
A: ~0.5 nM

Q: B8 was tested. Which “EC50 (read off the curve)” value did it give?
A: ~0.3 nM

Q: For B9, which “EC50 (read off the curve)” value is on record?
A: ~0.3 nM

Q: With B10 as the binder, how does the “EC50 (read off the curve)” value read?
A: ~0.3 nM

biological target: T4, RMF/HLA complex on antigen-positive cancer cells (SET2, BV173) (human); assay: flow cytometry on SET2 cells, IgG; '++' = EC50 below 10 nM, '+' = EC50 of more than 10 nM
T4 construct: whole, on cells; Naturally presented complex on SET2 (DSMZ ACC 608) and BV173 (DSMZ ACC 20) cells; also called RMF/HLA complex on cells; WT1/HLA-expressing cells
Description: (§1) SET2 cells (DSMZ No. ACC 608) and BV173 cells (DSMZ No. ACC 20) were used as antigen-positive cancer cells (see Dao et al.; 2013). Binding was measured by flow cytometry utilizing a PE-conjugated goat anti-human IgG secondary antibody, and EC50 values were determined.
(§2) Example 4 was repeated with the antibodies of the present disclosure, i.e. binding to RNF/HLA-positive SET2 cells (DSMZ No. ACC 608) and BV173 cells (DSMZ No. ACC 20) was tested by flow cytometry. EC50 values were determined.

Q: For B7, which EC50 is on record?
A: < 10 nM

Q: For B5, which EC50 is on record?
A: > 10 nM

Q: With B8 as the binder, how does the EC50 read?
A: > 10 nM

Q: How did the EC50 turn out when B9 was run?
A: < 10 nM

Q: B6 was tested. Which EC50 did it give?
A: > 10 nM

Q: For B10, which EC50 is on record?
A: > 10 nM

biological target: T3, WT1 RMF peptide/HLA-A0201 complex …; assay: Octet (BLI), IgG, apparent (bivalent) affinity; dissociation too slow for the limits of the system
Description: The apparent affinity of the binders Aali and Refmab #13 was measured for the RMF/HLA antigen with an Octet system. […] The binding of Aali was characterized by a very slow dissociation rate, which exceeded the specification limits that were set in the system.

Q: B7 was tested. Which Kd did it give?
A: < 0.5 nM

biological target: T4, RMF/HLA complex on antigen-positive …; assay: flow cytometry on BV173 cells, IgG; '++' = EC50 below 10 nM, '+' = EC50 of more than 10 nM
Description: as §1, §2

Q: How did the EC50 turn out when B7 was run?
A: > 10 nM

Q: Which EC50 does the source give for B5 here?
A: > 10 nM

Q: Which EC50 does the source give for B8 here?
A: > 10 nM

Q: B9 was tested. Which EC50 did it give?
A: > 10 nM

Q: Which EC50 does the source give for B6 here?
A: > 10 nM

Q: How did the EC50 turn out when B10 was run?
A: > 10 nM

biological target: T3, WT1 RMF peptide/HLA-A0201 complex …; assay: Octet (BLI), Fab, antigen immobilized to Streptavidin
Description: Affinities of the Fab fragments of binders Aali and Refmab #13 for the antigen RMF/HLA were also measured with an Octet system using the antigen immobilized to Streptavidin.

Q: For B1, which Kd is on record?
A: 66 nM

biological target: T1, PIGQ peptide/HLA-A0201 complex; assay: ELISA as in Example 3; biotinylated peptide/HLA complex coated at 50 nM on Neutravidin plates, IgG titrated, AP-conjugated goat anti-human IgG, RFU

Q: Does B7 bind?
A: no binding

Q: Does B5 bind?
A: no binding

Q: Does B8 bind?
A: no binding

Q: Does B9 bind?
A: no binding

Q: Does B6 bind?
A: no binding

Q: Does B10 bind?
A: no binding

biological target: T2, WT1 RMF peptide/HLA-A0201 complex …; assay: ELISA on Neutravidin plates, IgG; '++' = EC50 below 10 nM, '+' = EC50 of more than 10 nM

Q: B5 was tested. Which EC50 did it give?
A: < 10 nM

Q: Which EC50 does the source give for B6 here?
A: < 10 nM

biological target: T3, WT1 RMF peptide/HLA-A0201 complex …; assay: as above

Q: With B7 as the binder, how does the EC50 read?
A: < 10 nM

Q: B8 was tested. Which EC50 did it give?
A: < 10 nM

Q: B9 was tested. Which EC50 did it give?
A: < 10 nM

Q: Which EC50 does the source give for B10 here?
A: < 10 nM

biological target: T3, WT1 RMF peptide/HLA-A0201 complex …; assay: ELISA on Neutravidin plates, Fab; EC50 compared with the best reference Fab (not named)
Description: The binders were subjected to an in-depth characterization. They were directly compared to the antibodies of the prior art in an ELISA assay using Neutravidin plates as described in Example 3. For selected reference antibodies and binders of the present invention, the EC50 were determined.
Furthermore, none of the binders of the present invention show any binding to the counter targets, in particular no binding to the PIGQ/HLA complex.

Q: For B1, which “fold better EC50 than the best binder of the prior art” value (“fold better EC50 than the best binder” for short) is on record?
A: ≥ 3.3 fold

Q: B2 was tested. Which “fold better EC50 than the best binder” value did it give?
A: ≥ 3.3 fold

Q: Which “fold better EC50 than the best binder” value does the source give for B3 here?
A: ≥ 3.3 fold

Q: With B4 as the binder, how does the “fold better EC50 than the best binder” value read?
A: ≥ 3.3 fold

biological target: T3, WT1 RMF peptide/HLA-A0201 complex …; assay: ELISA on Neutravidin plates, Fab; '++' = EC50 below 10 nM, '+' = EC50 of more than 10 nM

Q: Which EC50 does the source give for B1 here?
A: < 10 nM

Q: How did the EC50 turn out when B2 was run?
A: < 10 nM

Q: Which EC50 does the source give for B3 here?
A: < 10 nM

Q: With B4 as the binder, how does the EC50 read?
A: > 10 nM

From patent US20210024635A1 (IMMATICS BIOTECHNOLOGIES, published 2021)
